Several values for one entry are separate records, joined by “and”; a condition that tells them apart may be missing. Identical values can stand only once.
Assays:
[1] = target: recombinant ZIKV sNS1 (full-length ZIKV NS1, residues 3-352, GZ02 strain) (Zika virus (GZ02 strain)); assay: negative staining EM
[2] = target: recombinant ZIKV sNS1 (full-length ZIKV NS1, residues 3-352, GZ02 strain) (Zika virus, strain GZ02, UniProt A0A146CJG7, strain); assay: cryo-EM structure
ZIKV-derived sNS1 = ZIKV-derived sNS1 (Zika virus, strain ; stand-in …, UniProt A0A146CJG7); assay: ELISA
cell-surface ZIKV NS1 = cell-surface ZIKV NS1 (Zika virus, strain ; stand-in …, UniProt A0A146CJG7); assay: flow cytometry on cells
DENV4 NS1 = DENV4 NS1 (Dengue virus 4, strain ; …, UniProt P09866); assay: ELISA
Sequence of DENV4 NS1 (P09866 775-1126): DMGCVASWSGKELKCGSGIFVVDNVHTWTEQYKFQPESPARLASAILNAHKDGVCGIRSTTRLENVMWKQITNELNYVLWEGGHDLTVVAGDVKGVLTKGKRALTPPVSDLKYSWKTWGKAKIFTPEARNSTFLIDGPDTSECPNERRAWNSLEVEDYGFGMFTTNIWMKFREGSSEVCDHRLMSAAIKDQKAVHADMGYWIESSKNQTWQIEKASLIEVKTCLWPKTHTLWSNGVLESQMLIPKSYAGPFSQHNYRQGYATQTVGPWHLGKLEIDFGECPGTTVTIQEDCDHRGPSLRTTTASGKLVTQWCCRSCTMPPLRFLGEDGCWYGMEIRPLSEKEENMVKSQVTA

DENV2 NS1 = DENV2 NS1 (Dengue virus 2, strain ; …, UniProt P29990); assay: ELISA
Sequence of DENV2 NS1 (P29990 776-1127): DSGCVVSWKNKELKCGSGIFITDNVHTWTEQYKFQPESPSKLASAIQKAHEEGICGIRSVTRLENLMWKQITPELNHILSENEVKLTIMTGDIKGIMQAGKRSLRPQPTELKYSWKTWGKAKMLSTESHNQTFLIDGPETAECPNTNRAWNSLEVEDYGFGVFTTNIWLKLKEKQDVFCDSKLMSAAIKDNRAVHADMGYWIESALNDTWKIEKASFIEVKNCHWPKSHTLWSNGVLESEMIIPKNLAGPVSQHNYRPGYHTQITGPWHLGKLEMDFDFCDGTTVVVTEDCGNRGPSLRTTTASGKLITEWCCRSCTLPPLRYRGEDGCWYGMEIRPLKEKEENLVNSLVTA

Molecule	stoichiometry N [2]	Kd (ZIKV-derived sNS1)	percentage of cell staining at 10 ug/ml (cell-surface ZIKV NS1)	other results
recombinant ZIKV sNS1 (full-length ZIKV NS1, residues 3-352, GZ02 strain) (natural protein)				stoichiometry N [1]: 4
Fab 3G2 (Fab, V domains shown) VH: EVQLLESGGGLIQPGGSLRLSCAASGLTVSNNYMNWVRQAPGKGLEWVSIIYSSGSTYYADSVKGRFTISRDTRKNTLYLQMHSLRVEDTAVYYCARERGWLDYWGQGTLVTVSS VL: VIWMTQSPSSLSASVGDRVTITCRASQSVSSHLNWYQQKPGKAPKLLIYAVSSLQSGVPSRFSGGDSGTDFTLTIASLQPEDFATYYCQQTYTIPRTFGQGTKVEIK	1 ratio Fab to NS1 and 4 copies of Fab fragment for each NS1 tetramer			
Fab 4B8 (Fab, V domains shown) VH: EVQLVESGGGLIQPGGSLRLSCAASGFTISSKYMSWVRQAPGKGLEWVSIIYSSGSTYYADSVKGRFTISRDISKNTLYLQMNSLRAEDTAVYYCASLGSGSAFGYWGQGTLVTVSS VL: DIVMTQSPSSVSASVGDRVTITCRASQGISTWLAWYQQKPGKAPRLLIYAASSLQSGVPSRFSGSGSGTDFTLTISSLQPEDFATYYCQQANSFPFTFGPGTKVEIK	1 ratio Fab to NS1 and 4 copies of Fab fragment for each NS1 tetramer			
Fab 4F10 (Fab, V domains shown) VH: EVQLLESGPGLVKPSQTLSLTCTVSGGSISSGGYYWSWIRQHPGKGLEWIGYIYYSGSTYYNPSLKSRVAMSVDTSKNQFSLTLSSVTAADTAVYYCARAIDNFYDNSIWGQGTLVTVSS VL: DIQMTQSPSSLSASVGDRVTIACRASQSITNFLNWYQQKPGKAPKLLIYAVSNLQSGVPSRFSGSGSGTDFTLTISSVRPEDFATYFCQQSYSPPYTFGQGTKVDIK	1 ratio Fab to NS1			
Fab 2E11 (Fab, V domains shown) VH: SVELIESGGGVVQPGRSLRLSCAASGFTFSNYAMHWVRQAPGKGLEWVAFISYDGSNKYYADSVKGRFTISRDNSKNTLSLQMNSLRAEDTALYYCARVFNGYEGDYWGQGTLVTVSS VL: LPVLTQPPSVSVSPGQTARITCSGDALPKKYAYWYQQKSGQAPVLVIYEDSKRPSGIPERFSGSSSGTMATLTISGAQVEDEADYYCYSTDSSGNLYVFGTGTKVTVL	1 ratio Fab to NS1			
Fab 14G5 (Fab, V domains shown) VH: QVQLVQSGAEVKKPGESLKISCKGSGYSFTSYWIGWVRQMPGKGLEWMGIIYPGDSDTRYSPSFQGQVTMSADRSISTAYLQWSSLKASDTAMYYCARSNVDGSTDYWGQGTLVTVSS VL: SYELTQPPSVSVSPGQTARITCSGDALPKQYAFWYQQKPGQAPVLVIYKDSERPSGIPERFSGSSSGTTVTLTISGVQAEDEADYYCQSADSSDTYVPYVFGTGTKVTVL	1 ratio Fab to NS1			
mAb 3G2 (IgG) (antibody, V domains shown) VH: EVQLLESGGGLIQPGGSLRLSCAASGLTVSNNYMNWVRQAPGKGLEWVSIIYSSGSTYYADSVKGRFTISRDTRKNTLYLQMHSLRVEDTAVYYCARERGWLDYWGQGTLVTVSS VL: VIWMTQSPSSLSASVGDRVTITCRASQSVSSHLNWYQQKPGKAPKLLIYAVSSLQSGVPSRFSGGDSGTDFTLTIASLQPEDFATYYCQQTYTIPRTFGQGTKVEIK		0.12 ± 0.02 nM	76%	
mAb 4B8 (IgG) (antibody, V domains shown) VH: EVQLVESGGGLIQPGGSLRLSCAASGFTISSKYMSWVRQAPGKGLEWVSIIYSSGSTYYADSVKGRFTISRDISKNTLYLQMNSLRAEDTAVYYCASLGSGSAFGYWGQGTLVTVSS VL: DIVMTQSPSSVSASVGDRVTITCRASQGISTWLAWYQQKPGKAPRLLIYAASSLQSGVPSRFSGSGSGTDFTLTISSLQPEDFATYYCQQANSFPFTFGPGTKVEIK		0.8 ± 0.33 nM	70%	
mAb 4F10 (IgG) (antibody, V domains shown) VH: EVQLLESGPGLVKPSQTLSLTCTVSGGSISSGGYYWSWIRQHPGKGLEWIGYIYYSGSTYYNPSLKSRVAMSVDTSKNQFSLTLSSVTAADTAVYYCARAIDNFYDNSIWGQGTLVTVSS VL: DIQMTQSPSSLSASVGDRVTIACRASQSITNFLNWYQQKPGKAPKLLIYAVSNLQSGVPSRFSGSGSGTDFTLTISSVRPEDFATYFCQQSYSPPYTFGQGTKVDIK		0.06 ± 0.01 nM	58%	binding result (DENV4 NS1): binds; binding result (DENV2 NS1): binds
mAb 2E11 (IgG) (antibody, V domains shown) VH: SVELIESGGGVVQPGRSLRLSCAASGFTFSNYAMHWVRQAPGKGLEWVAFISYDGSNKYYADSVKGRFTISRDNSKNTLSLQMNSLRAEDTALYYCARVFNGYEGDYWGQGTLVTVSS VL: LPVLTQPPSVSVSPGQTARITCSGDALPKKYAYWYQQKSGQAPVLVIYEDSKRPSGIPERFSGSSSGTMATLTISGAQVEDEADYYCYSTDSSGNLYVFGTGTKVTVL		0.22 ± 0.04 nM	59%	
mAb 14G5 (IgG) (antibody, V domains shown) VH: QVQLVQSGAEVKKPGESLKISCKGSGYSFTSYWIGWVRQMPGKGLEWMGIIYPGDSDTRYSPSFQGQVTMSADRSISTAYLQWSSLKASDTAMYYCARSNVDGSTDYWGQGTLVTVSS VL: SYELTQPPSVSVSPGQTARITCSGDALPKQYAFWYQQKPGQAPVLVIYKDSERPSGIPERFSGSSSGTTVTLTISGVQAEDEADYYCQSADSSDTYVPYVFGTGTKVTVL		0.15 ± 0.03 nM	63%	

Source: paper doi:10.1101/2023.10.16.562450 (bioRxiv, 2023)
